Results on 5 molecules are retold here after PMC7948952, “Structural basis for multifunctional roles of human Ints3 C-terminal domain” (The Journal of Biological Chemistry, 2020).

Data set [1] concerns the molecule itself. The data set is described as follows: cross-linking; glutaraldehyde, final concentration 0.075%, SDS-PAGE; negative control with 1% SDS and 20 mM DTT added before the reaction.
Data set [2] deals with the molecule itself. As to the kind of experiment: SEC; Superdex 200 Increase 10/300 Gl, 100 μl of approximately 2 mg/ml, 0.5 ml/min; wild-type and mutant Ints3-555-976. On the technique in general: SEC sorts molecules by how far they enter the pores of the column.
Data set [3] addresses T1, GST-tagged Ints3-555-976 R863A/D869A (human, UniProt Q68E01-2 555-976, R863A | D869A).
T1 construct: numbers count on: UniProtKB Q68E01-2, 1042 amino acids; source: E. coli BL21, coexpressed with MBP-Ints6-807-887; also captured on glutathione Sepharose from lysate; not shown: GST, N-terminal, kept
As to the kind of experiment: pull-down; coexpression in E. coli of GST-tagged Ints3 constructs (pGEX-6p-1) and MBP-Ints6-807-887 (pRSFDuet-1), GST or MBP pull-down ('coexpression and reverse pull-down'). Conditions: partners not purified.

Data set [4] addresses T2, GST-tagged Ints3-555-976, wild type (human, UniProt Q68E01-2 555-976).
T2 construct: numbers count on: UniProtKB Q68E01-2, 1042 amino acids; also called GST-Ints3; GST-tagged Ints3 C-terminal domain; source: E. coli BL21, captured on glutathione Sepharose from lysate; also coexpressed with MBP-Ints6-807-887; not shown: GST, N-terminal, kept
As to the kind of experiment: pull-down; in vitro GST pull-down: GST-Ints3 captured on glutathione Sepharose 4B from BL21 lysates, incubated with about 15 μg purified MBP-Ints6-807-887; 20 mM Tris-HCl pH 8.0, 300 mM NaCl, 0.1% Nonidet P-40, 5% glycerol, 2 mM DTT, 2 h at 4 °C; anti-MBP blot. As to conditions: both partners purified.

The target in data set [5] is T3, GST-tagged Ints3-555-899 (human, UniProt Q68E01-2 555-899).
T3 construct: numbers count on: UniProtKB Q68E01-2, 1042 amino acids; source: E. coli BL21, captured on glutathione Sepharose from lysate
The data set is described as above. As to conditions: both partners purified.

For data set [6], the target named is Ints3 C-terminal domain (Ints3-555-976) WT (human, UniProt Q68E01-2 555-976). The data set is described as follows: EMSA; roughly 100% bound at 25 uM protein; 20 mM Hepes pH 7.4, 100 mM NaCl, 1 mM MgCl2, 1 mg/ml BSA, 2 mM DTT, 5% glycerol; on ice 30 min; 7.5 nM probe; native 5% PAGE in 1X TBE. Conditions: protein: recombinant; tags: His or GST (GST cleaved); chain copies: 2; label: 5' 32P; single strand.

B1: Ints3-555-976 (human Ints3 C-terminal domain), wild type (domain or fragment, UniProt Q68E01-2 555-976, looked up)
chain: PIKETVVEEPVDITPYLDQLDESLRDKVLQLQKGSDTEAQCEVMQEIVDQVLEEDFDSEQLSVLASCLQELFKAHFRGEVLPEEITEESLEESVGKPLYLIFRNLCQMQEDNSSFSLLLDLLSELYQKQPKIGYHLLYYLRASKAAAGKMNLYESFAQATQLGDLHTCLMMDMKACQEDDVRLLCHLTPSIYTEFPDETLRSGELLNMIVAVIDSAQLQELVCHVMMGNLVMFRKDSVLNILIQSLDWETFEQYCAWQLFLAHNIPLETIIPILQHLKYKEHPEALSCLLLQLRREKPSEEMVKMVLSRPCHPDDQFTTSILRHWCMKHDELLAEHIKSLLIKNNSLPRKRQSLRSSSSKLAQLTLEQILEHLDNLRLNLTNTKQNFFSQTPILQALQHVQASCDEAHKMKFSDLFSLAEEY
notes: numbers count on: UniProtKB Q68E01-2, 1042 amino acids; For crystallisation a trace of trypsin (1:1000 w/w) was added; it cuts after K557 and after K914, and both fragments stay in the crystal; SeMet protein was used for phasing; also called HR1-11; Band I; not shown: GST, N-terminal, cleaved
B1: in data set [1], the stoichiometry N (as a rule, the number of molecules, sites or subunits per partner or assembly) amounted to 2.

B2: Ints3-555-976 K851E (domain or fragment, human, UniProt Q68E01-2 555-976, looked up)
chain: PIKETVVEEPVDITPYLDQLDESLRDKVLQLQKGSDTEAQCEVMQEIVDQVLEEDFDSEQLSVLASCLQELFKAHFRGEVLPEEITEESLEESVGKPLYLIFRNLCQMQEDNSSFSLLLDLLSELYQKQPKIGYHLLYYLRASKAAAGKMNLYESFAQATQLGDLHTCLMMDMKACQEDDVRLLCHLTPSIYTEFPDETLRSGELLNMIVAVIDSAQLQELVCHVMMGNLVMFRKDSVLNILIQSLDWETFEQYCAWQLFLAHNIPLETIIPILQHLKYKEHPEALSCLLLQLRREEPSEEMVKMVLSRPCHPDDQFTTSILRHWCMKHDELLAEHIKSLLIKNNSLPRKRQSLRSSSSKLAQLTLEQILEHLDNLRLNLTNTKQNFFSQTPILQALQHVQASCDEAHKMKFSDLFSLAEEY
notes: numbers count on: UniProtKB Q68E01-2, 1042 amino acids; also called K851 E charge mutant; source: purified to homogeneity (gel filtration)
As for B2, the “stoichiometry N” value in data set [2] was 2.

B3: Ints3-555-976 R788E/K789E (domain or fragment, human, UniProt Q68E01-2 555-976, looked up)
chain: PIKETVVEEPVDITPYLDQLDESLRDKVLQLQKGSDTEAQCEVMQEIVDQVLEEDFDSEQLSVLASCLQELFKAHFRGEVLPEEITEESLEESVGKPLYLIFRNLCQMQEDNSSFSLLLDLLSELYQKQPKIGYHLLYYLRASKAAAGKMNLYESFAQATQLGDLHTCLMMDMKACQEDDVRLLCHLTPSIYTEFPDETLRSGELLNMIVAVIDSAQLQELVCHVMMGNLVMFEEDSVLNILIQSLDWETFEQYCAWQLFLAHNIPLETIIPILQHLKYKEHPEALSCLLLQLRREKPSEEMVKMVLSRPCHPDDQFTTSILRHWCMKHDELLAEHIKSLLIKNNSLPRKRQSLRSSSSKLAQLTLEQILEHLDNLRLNLTNTKQNFFSQTPILQALQHVQASCDEAHKMKFSDLFSLAEEY
notes: numbers count on: UniProtKB Q68E01-2, 1042 amino acids; source: purified to homogeneity (gel filtration)
Take B3: the “stoichiometry N” value in data set [2] stood at 2.

B4: MBP-Ints6-807-887 (domain or fragment, UniProt Q9UL03 807-887, looked up)
chain: EVNTELKAQIMKEIRKPGRKYERIFTLLKHVQGSLQTRLIFLQNVIKEASRFKKRMLIEQLENFLDEIHRRANQINHINSN
notes: Integrator complex subunit 6 (Ints6, DDX26a), residues 807-887; cDNA from DNAsu; Made in a modified pMal-c2X vector: an AAAEF linker and no protease site stand between MBP and Ints6-807-887; the MBP-Ints6-807-887 region was then cloned into pRSFDuet-1; also called MBP-tagged Ints6-807-887; source: E. coli BL21-CodonPlus (DE3)-RIPL, purified (amylose resin, HiTrap Q); also coexpressed with …
Turning to B4, the binding result in data set [3], in data set [4] and in data set [5] was “binds” in each case.
As to UUUUUUUUUUUUUUUUUUUUUUUUUUUUUU (ssRNA) [rU30], in data set [6], the binding result was “binds”.
